Measured values: patent US20170210819A1
One block for each molecule: values may come before it.

Tests used:
[1] = molecular target: EGFR (human) (UniProt P00533); experiment: flow cytometry on U2OS cells; histogram shifted to between 10^1 and 10^2, partly overlapping the control; 'No antibody' panel shows 6.17
[2] = molecular target: EGFR (human) (UniProt P00533); experiment: flow cytometry on PCI-30 cells; main peak between 10^2 and 10^3 with a tail toward the control; 'No antibody' panel shows 13.1
[3] = molecular target: EGFR (human) (UniProt P00533); experiment: flow cytometry on HeLa cells; histogram shifted to between 10^2 and 10^3; 'No antibody' panel shows 5.56
[4] = molecular target: antigen CD3 (Biacore); experiment: SPR (Biacore), antigen CD3

MFI [1]: 26.8
MFI [2]: 388
MFI [3]: 586
Molecule: EGFR 528 (phb 704) (antibody)

Kd [4]: 0.0646 µM
koff [4]: 0.109 s⁻¹
kon [4]: 1.68e+06 M⁻¹ s⁻¹
B1: huOKT3 IgG1-aGlyco (antibody, V domains shown)
VH: QVQLVQSGGGVVQPGRSLRLSCKASGYTFTRYTMHWVRQAPGKGLEWIGYINPSRGYTNYNQKFKDRFTISRDNSKNTAFLQMDSLRPEDTGVYFCARYYDDHYCLDYWGQGTPVTVSS
VL: DIQMTQSPSSLSASVGDRVTITCSASSSVSYMNWYQQTPGKAPKRWIYDTSKLASGVPSRFSGSGSGTDYTFTISSLQPEDIATYYCQQWSSNPFTFGQGTKLQITR
